We go through 1 molecule from article doi:10.1101/2025.06.05.658000 (2025).

Common to all, as to experiment: ELISA
(In general: ELISA stands for enzyme-linked immunosorbent assay.)

Assay [1] deals with HLA-DR (DRA1*01:01 / DRB1*03:01), soluble knob-into-hole Fc heterodimer (human).
In assay [2] the target is HLA-DR (DRA1*01:01 / DRB1*04:06), soluble knob-into-hole Fc heterodimer (human).
In assay [3] the target is HLA-DR (DRA1*01:01 / DRB1*01:02), soluble knob-into-hole Fc heterodimer (human).
Assay [4] deals with HLA-DR (DRA1*01:01 / DRB1*11:04), soluble knob-into-hole Fc heterodimer (human).
Assay [5] has as its target HLA-DR (DRA1*01:01 / DRB1*13:02), soluble knob-into-hole Fc heterodimer (human).
Assay [6] has as its target HLA-DR (DRA1*01:01 / DRB1*14:01), soluble knob-into-hole Fc heterodimer (human).
Assay [7] concerns the target HLA-DR (DRA1*01:01 / DRB1*14:54), soluble knob-into-hole Fc heterodimer (human).
Assay [8] has as its target HLA-DR (DRA1*01:01 / DRB1*16:02), soluble knob-into-hole Fc heterodimer (human).
Assay [9] deals with HLA-DR (DRA1*01:01 / DRB1*11:01), soluble knob-into-hole Fc heterodimer (human).
Assay [10] has as its target HLA-DR (DRA1*01:01 / DRB1*09:01), soluble knob-into-hole Fc heterodimer (human).
For assay [11], the target named is HLA-DR (DRA1*01:01 / DRB1*15:03), soluble knob-into-hole Fc heterodimer (human).
Assay [12] deals with HLA-DR (DRA1*01:01 / DRB1*12:02), soluble knob-into-hole Fc heterodimer (human).
Assay [13] has as its target HLA-DR (DRA1*01:01 / DRB1*04:07), soluble knob-into-hole Fc heterodimer (human).
Assay [14] addresses HLA-DR (DRA1*01:01 / DRB1*13:01), soluble knob-into-hole Fc heterodimer (human).
In assay [15] the target is HLA-DR (DRA1*01:01 / DRB1*12:01), soluble knob-into-hole Fc heterodimer (human).
For assay [16], the target named is HLA-DR (DRA1*01:01 / DRB1*04:03), soluble knob-into-hole Fc heterodimer (human).
In assay [17] the target is HLA-DR (DRA1*01:01 / DRB1*04:04), soluble knob-into-hole Fc heterodimer (human).
Assay [18] addresses HLA-DR (DRA1*01:01 / DRB1*15:01), soluble knob-into-hole Fc heterodimer (human).
Assay [19] deals with HLA-DR (DRA1*01:01 / DRB1*01:01), soluble knob-into-hole Fc heterodimer (human).
Assay [20] deals with HLA-DR (DRA1*01:01 / DRB1*04:01), soluble knob-into-hole Fc heterodimer (human).
For assay [21], the target named is HLA-DR (DRA1*01:01 / DRB1*04:05), soluble knob-into-hole Fc heterodimer (human).
Assay [22] deals with HLA-DR (DRA1*01:01 / DRB1*15:02), soluble knob-into-hole Fc heterodimer (human).
Assay [23] deals with HLA-DR (DRA1*01:01 / DRB1*10:01), soluble knob-into-hole Fc heterodimer (human).
Assay [24] has as its target HLA-DR (DRA1*01:01 / DRB1*07:01), soluble knob-into-hole Fc heterodimer (human).

The term Ki denotes a measure of affinity in units of concentration, obtained from inhibition or displacement. A high value points to lower affinity. For KPVSKMRMATPLLMQALPM [human CLIP peptide, unlabelled competitor], the Ki in assay [1] was determined as 23.9 nM; in [2], 8.27 nM; in assay [3], 5.52 nM; in [4], 2.92 nM; in assay [5], 4470 nM; in assay [6], 67 nM. In addition, the inhibitory constant (Ki) in assay [7] worked out at 9.1 nM; in [8] it was 47 nM; in [9], 25.8 nM; in [10], 11 nM; in [11] it was 11.1 nM; in assay [12], 3.68 nM. The inhibitory constant (Ki) in assay [13] came to 5.25 nM; in assay [14], 350 nM; in assay [15], 37.8 nM; in assay [16], 5.96 nM; in [17], 7.75 nM; in [18], 6.31 nM. In addition, the Ki was determined as 6.04 nM in [19]; 6.46 nM in [20]; 41.9 nM in assay [21]; 23.1 nM in [22]; 13.3 nM in assay [23]; 6.87 nM in assay [24].
